Changes are numbered by the printed parent chain. Like-named read-outs stand apart in the source and are kept apart here.
Columns and labels:
human AXL (full length) [1] = biological target: T1, human AXL (full length) (human, UniProt P30530 26-894); experiment: flow cytometry, HEK293T cells transiently transfected with human AXL
T1 construct: also called TH1021-AXL; TH1021-hAXL

human AXL (full length) [2] = biological target: T1, human AXL (full length); experiment: flow cytometry, A431 cells, no Gas6
AXLECDHis [3] = biological target: T2, AXLECDHis (human, UniProt P30530 26-447); experiment: BLI (Octet), IgG on anti-human Fc sensor, AXLECDHis analyte
T2 construct: theoretical mass 46 kDa used; also called extracellular domain (ECD) of human AXL (aa 1-447) with a C-terminal His tag; soluble recombinant AXL extracellular domain

human AXL (full length) [4] = biological target: T1, human AXL (full length); experiment: flow cytometry, A431 cells pre-incubated with 10 µg/mL Gas6 (competitor)
[5] = biological target: T3, Homo sapiens AXL-Mus musculus Ig1 domain (p33-AXL-mIg1) (human-mouse chimera, UniProt P30530 8-894); experiment: flow cytometry, 1 µg/mL antibody, transfected HEK293F cells
T3 construct: Expressed in HEK293F cells; also called hsAXL-mmIg1; hsAXL-mmIgl
T3 chain: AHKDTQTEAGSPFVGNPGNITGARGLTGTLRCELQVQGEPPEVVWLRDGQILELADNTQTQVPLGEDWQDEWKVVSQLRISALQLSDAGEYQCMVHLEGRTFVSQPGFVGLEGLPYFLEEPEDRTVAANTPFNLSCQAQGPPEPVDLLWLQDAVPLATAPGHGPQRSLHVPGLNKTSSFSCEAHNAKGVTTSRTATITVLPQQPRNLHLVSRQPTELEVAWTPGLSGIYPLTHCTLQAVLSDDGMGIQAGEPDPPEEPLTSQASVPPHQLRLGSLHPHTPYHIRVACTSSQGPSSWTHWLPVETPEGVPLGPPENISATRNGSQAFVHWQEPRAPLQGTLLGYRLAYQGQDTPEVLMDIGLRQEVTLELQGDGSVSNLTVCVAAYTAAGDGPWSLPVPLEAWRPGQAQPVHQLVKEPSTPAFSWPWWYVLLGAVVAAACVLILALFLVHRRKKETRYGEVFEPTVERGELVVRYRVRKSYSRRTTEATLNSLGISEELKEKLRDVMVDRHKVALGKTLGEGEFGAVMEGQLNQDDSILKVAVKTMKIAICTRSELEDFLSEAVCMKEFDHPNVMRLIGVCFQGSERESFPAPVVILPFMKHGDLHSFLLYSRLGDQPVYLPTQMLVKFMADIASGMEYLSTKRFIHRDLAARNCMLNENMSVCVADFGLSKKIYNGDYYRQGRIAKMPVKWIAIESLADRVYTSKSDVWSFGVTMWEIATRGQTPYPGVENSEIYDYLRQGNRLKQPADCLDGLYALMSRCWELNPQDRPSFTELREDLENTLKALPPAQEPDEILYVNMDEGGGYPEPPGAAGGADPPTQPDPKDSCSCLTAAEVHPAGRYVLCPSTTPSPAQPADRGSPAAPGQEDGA

[6] = biological target: T4, Homo sapiens AXL-Mus musculus FN1 domain (p33-AXL-mFN1) (human-mouse chimera, UniProt P30530 26-894); experiment: as above
T4 construct: Expressed in HEK293F cells; also called hsAXL-mmFN1; TH1021-mFN1
T4 chain: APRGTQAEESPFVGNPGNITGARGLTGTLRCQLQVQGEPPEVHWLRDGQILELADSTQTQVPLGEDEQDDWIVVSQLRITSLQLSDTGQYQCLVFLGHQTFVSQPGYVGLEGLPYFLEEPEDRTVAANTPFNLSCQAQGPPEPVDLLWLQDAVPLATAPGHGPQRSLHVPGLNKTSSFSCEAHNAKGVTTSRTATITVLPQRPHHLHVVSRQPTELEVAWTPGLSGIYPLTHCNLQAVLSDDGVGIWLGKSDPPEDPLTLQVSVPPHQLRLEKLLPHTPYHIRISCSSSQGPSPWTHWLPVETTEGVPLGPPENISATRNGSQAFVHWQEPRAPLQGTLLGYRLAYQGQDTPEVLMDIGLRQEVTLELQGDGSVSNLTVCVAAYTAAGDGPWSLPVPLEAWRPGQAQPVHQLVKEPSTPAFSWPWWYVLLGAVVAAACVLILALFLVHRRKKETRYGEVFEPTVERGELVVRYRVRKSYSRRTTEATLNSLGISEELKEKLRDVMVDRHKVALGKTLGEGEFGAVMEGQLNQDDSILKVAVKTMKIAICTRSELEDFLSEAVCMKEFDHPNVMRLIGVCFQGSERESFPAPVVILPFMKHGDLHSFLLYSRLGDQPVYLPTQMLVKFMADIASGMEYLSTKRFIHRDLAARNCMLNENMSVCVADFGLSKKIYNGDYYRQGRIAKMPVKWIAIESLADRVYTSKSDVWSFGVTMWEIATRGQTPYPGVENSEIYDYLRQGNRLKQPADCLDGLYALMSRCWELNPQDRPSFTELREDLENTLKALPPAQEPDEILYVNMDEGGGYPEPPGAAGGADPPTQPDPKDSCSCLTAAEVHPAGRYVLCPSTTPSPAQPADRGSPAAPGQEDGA

[7] = biological target: T5, Homo sapiens AXL-Mus musculus FN2 domain (p33-AXL-mFN2) (human-mouse chimera, UniProt P30530 26-894); experiment: as above
T5 construct: Expressed in HEK293F cells; also called hsAXL-mmFN2; TH1021-mFN2
T5 chain: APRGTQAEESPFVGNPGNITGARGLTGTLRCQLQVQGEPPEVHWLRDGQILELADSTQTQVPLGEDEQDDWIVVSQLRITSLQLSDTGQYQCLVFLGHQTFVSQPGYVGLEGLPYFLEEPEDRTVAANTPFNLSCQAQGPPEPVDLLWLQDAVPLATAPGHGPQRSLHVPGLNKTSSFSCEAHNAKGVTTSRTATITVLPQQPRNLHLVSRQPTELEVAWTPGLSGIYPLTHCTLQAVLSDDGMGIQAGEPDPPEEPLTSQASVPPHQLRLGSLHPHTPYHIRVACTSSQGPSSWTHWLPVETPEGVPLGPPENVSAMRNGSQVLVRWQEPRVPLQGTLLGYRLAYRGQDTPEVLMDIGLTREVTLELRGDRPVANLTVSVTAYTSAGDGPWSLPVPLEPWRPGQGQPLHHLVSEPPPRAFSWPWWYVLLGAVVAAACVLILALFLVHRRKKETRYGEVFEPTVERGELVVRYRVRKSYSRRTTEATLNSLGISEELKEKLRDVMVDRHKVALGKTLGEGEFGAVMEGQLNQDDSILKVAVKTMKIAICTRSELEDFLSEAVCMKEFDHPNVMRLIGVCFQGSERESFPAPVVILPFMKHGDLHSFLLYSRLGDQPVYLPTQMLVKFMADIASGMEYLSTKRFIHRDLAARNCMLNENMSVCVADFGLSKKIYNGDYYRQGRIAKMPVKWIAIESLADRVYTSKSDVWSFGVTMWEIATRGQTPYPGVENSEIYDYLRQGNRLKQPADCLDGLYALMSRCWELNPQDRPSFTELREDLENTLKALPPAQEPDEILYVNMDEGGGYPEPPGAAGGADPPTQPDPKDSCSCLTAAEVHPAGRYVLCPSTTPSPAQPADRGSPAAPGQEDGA

human AXL (full length) [8] = biological target: T1, human AXL (full length); experiment: flow cytometry, HEK293T cells with full-length human AXL
AXLECDHis [9] = biological target: T2, AXLECDHis; experiment: BLI (Octet), IgG on anti-human Fc sensor, AXLECDHis analyte; remark: listed apart in the source
[10] = biological target: T6, human AXL with a cynomolgus monkey extracellular domain (ECD) (cynomolgus monkey (Macaca …, UniProt P30530 26-894)); experiment: flow cytometry, HEK293T cells with human AXL carrying cynomolgus ECD
T6 construct: Chimera on transfected HEK293T cells; also called cynomolgus AXL; cynomolgus AXL-ECD
T6 chain: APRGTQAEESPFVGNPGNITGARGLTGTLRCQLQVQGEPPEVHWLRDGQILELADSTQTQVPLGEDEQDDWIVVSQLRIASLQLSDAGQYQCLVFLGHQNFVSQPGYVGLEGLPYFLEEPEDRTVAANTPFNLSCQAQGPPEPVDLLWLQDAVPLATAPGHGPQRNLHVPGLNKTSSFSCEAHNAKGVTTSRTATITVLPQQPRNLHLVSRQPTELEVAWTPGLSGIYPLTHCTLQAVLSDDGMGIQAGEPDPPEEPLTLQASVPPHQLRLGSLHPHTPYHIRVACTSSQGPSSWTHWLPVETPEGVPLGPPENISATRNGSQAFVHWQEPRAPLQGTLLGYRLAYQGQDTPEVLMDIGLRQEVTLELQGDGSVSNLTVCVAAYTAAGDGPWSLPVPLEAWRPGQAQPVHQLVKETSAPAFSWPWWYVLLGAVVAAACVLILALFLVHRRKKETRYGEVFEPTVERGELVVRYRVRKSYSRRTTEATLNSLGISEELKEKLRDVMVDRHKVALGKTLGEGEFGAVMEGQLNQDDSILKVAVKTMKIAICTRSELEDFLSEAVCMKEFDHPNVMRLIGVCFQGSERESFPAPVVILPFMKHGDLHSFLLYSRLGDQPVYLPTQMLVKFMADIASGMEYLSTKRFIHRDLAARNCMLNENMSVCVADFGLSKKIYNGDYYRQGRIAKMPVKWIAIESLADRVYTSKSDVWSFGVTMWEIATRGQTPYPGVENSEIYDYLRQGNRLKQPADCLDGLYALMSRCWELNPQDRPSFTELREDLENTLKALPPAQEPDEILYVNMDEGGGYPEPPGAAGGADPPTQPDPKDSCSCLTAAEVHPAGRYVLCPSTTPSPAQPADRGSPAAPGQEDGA

B1: IgG1-AXL-148-A-vcDuo3 (antibody, V domains shown)
VH: EVQLLESGGGLVQPGGSLRLSCAASGFTFSSYAMTWVRQAPGKGLEWVSAISISGGSTFYADSVKGRFTISRDNSKNTLYLQMNSLRAEDTAVYYCRGYSGYVYDAFDFWGQGTMVTVSS
VL: DIQMTQSPSSLSASVGDRVTITCRASQGISNWLAWYQQKPEKAPKSLIYAASSLQSGVPSRFSGSGSGTDFTLTISSLQPEDFATYYCQQYNSYPLTFGGGTKVEIK
modifications: drug-linker on lysine(s); chain and position not given
notes: also called IgG1-AXL-148-vcDuostatin3; IgG1-AXL-148-vcDuo3
Human AXL (full length) [1]
  binding result: binds

B2: IgG1-AXL-511 (antibody, V domains shown)
VH: EVQLLESGGGLVQPGGSLRLSCAASGFTFSSYAMNWVRQAPGKGLEWVSGISGSGGHTYHADSVKGRFTISRDNSKNTLYLQMNSLRAEDTAVYYCAKDRYDILTGYYNLLDYWGQGTLVTVSS
VL: B1 VL with N31S, K42E, T102A
notes: also called clone 511
Human AXL (full length) [2]
  EC50: 0.12 µg/mL
AXLECDHis [3]
  Kd: 23 nM
  koff: 0.0039 s⁻¹
  kon: 170000 M⁻¹ s⁻¹
Human AXL (full length) [4]
  EC50: 0.3 µg/mL
  maximal binding in presence of Gas6 (% of binding in absence of Gas6): 93%

B3: IgG1-AXL-171 (antibody, V domains shown)
VH: EVQLLESGGGLVQPGGSLRLSCAASGFTFSSYAMSWVRQAPGKGLEWVSDISVSGGSTYYADSVKGRFTISRDNSKNTLYLQMNSLRAEDTAVYYCAKEGYIWFGESLSYAFDIWGQGTMVTVSS
VL: not shown
[5]
  binding result: binds
[6]
  binding result: binds
[7]
  binding result: binds

B4: IgG1-AXL-183-N52Q (antibody, V domains shown)
VH: QVQLQQWGAGLLKPSETLSLTCAVYGGSFSGYYWSWIRQPPGKGLEWIGEIQQSGSTNYNPSLKSRVTISVDTSKNQFSLKLSSVTAADTSVYYCASGNWDHFFDYWGQGTLVTVSS
VL: DIQMTQSPSSVSASVGDRVTITCRASQGISSWLAWYQHKPGKAPKLLIYATSSLQSGVTSRFSGSGSGTDFTLTISSLQPEDFATYYCQQAKSFPWTFGQGTKVEIK
notes: Expressed as human IgG1,κ; also called IgG1-AXL-183-N520
AXLECDHis [3]
  fold change of dissociation rate against wild-type IgG1-AXL-183: ~2.5 fold
Human AXL (full length) [8]
  EC50: 0.35 µg/mL
AXLECDHis [9]
  Kd: 24 nM
  koff: 0.001 s⁻¹
  kon: 42000 M⁻¹ s⁻¹
[10]
  EC50: 0.324 µg/mL

B5: IgG1-AXL-183-A-vcDuo3 (antibody, V domains shown)
VH: B4 VH with Q52N
VL: B4 VL
modifications: drug-linker on lysine(s); chain and position not given
notes: also called IgG1-AXL-183-vcDuostatin3; IgG1-AXL-183-vcDuo3
Human AXL (full length) [1]
  EC50 (read off the curve): ~0.2 µg/mL
